# Data published in PMC6935017 (Cell, 2018).
# B1: Streptococcus thermophilus Csm3 (natural protein, Streptococcus thermophilus ND03)
# chain: MTFAKIKFSAQIRLETGLHIGGSDAFAAIGAIDSPVIKDPITNIPIIPGSSLKGKMRTLLAKVYNEKVAEKPSDDSDILSRLFGNSKDKRFKMGRLIFRDAFLSNADELDSLGVRSYTEVKFENTIDRITAEANPRQIERAIRNSTFDFELIYEITDENENQVEEDFKVIRDGLKLLELDYLGGSGSRGYGKVAFEKLKATTVFGNYDVKTLNELLTAEV
# B2: Streptococcus thermophilus Csm2 (natural protein, Streptococcus thermophilus ND03, UniProt A0A0A7HIX1 1-121, looked up)
# chain: MAILTDENYVDKAERAISLLEKDNKGNYLLTTSQIRKLLSLCSSLYDRSKERKFDELINDVSYLRVQFVYQAGREIAVKDLIEKAQILEALKEIKDRETLQRFCRYMEALVAYFKFYGGKD
# Molecular target: the molecule itself
# Experiment: crystal structure
row,Protein,stoichiometry N
1,B1,3
2,B2,2
